Results published in US20120052569.

What was measured:
[1] = target: His-eTEV-Fn fusion protein, Ala mutant Q7, P02751
[2] = target: His-eTEV-Fn fusion protein (wild type), P02751
[3] = target: His-eTEV-Fn fusion protein, Ala mutant D10, P02751
[4] = target: His-eTEV-Fn fusion protein, Ala mutant N3, P02751
[5] = target: W tag fused Fn, P02751
[6] = target: His-eTEV-Fn fusion protein, Ala mutant L4, P02751
[7] = target: His-eTEV-Fn fusion protein, Ala mutant G11, P02751
[8] = target: His-eTEV-Fn fusion protein, Ala mutant Y5, P02751
Chain of His-eTEV-Fn fusion protein, Ala mutant Y5, P02751 (P02751 whole entry, looked up, change not shown, the tested form may be a part): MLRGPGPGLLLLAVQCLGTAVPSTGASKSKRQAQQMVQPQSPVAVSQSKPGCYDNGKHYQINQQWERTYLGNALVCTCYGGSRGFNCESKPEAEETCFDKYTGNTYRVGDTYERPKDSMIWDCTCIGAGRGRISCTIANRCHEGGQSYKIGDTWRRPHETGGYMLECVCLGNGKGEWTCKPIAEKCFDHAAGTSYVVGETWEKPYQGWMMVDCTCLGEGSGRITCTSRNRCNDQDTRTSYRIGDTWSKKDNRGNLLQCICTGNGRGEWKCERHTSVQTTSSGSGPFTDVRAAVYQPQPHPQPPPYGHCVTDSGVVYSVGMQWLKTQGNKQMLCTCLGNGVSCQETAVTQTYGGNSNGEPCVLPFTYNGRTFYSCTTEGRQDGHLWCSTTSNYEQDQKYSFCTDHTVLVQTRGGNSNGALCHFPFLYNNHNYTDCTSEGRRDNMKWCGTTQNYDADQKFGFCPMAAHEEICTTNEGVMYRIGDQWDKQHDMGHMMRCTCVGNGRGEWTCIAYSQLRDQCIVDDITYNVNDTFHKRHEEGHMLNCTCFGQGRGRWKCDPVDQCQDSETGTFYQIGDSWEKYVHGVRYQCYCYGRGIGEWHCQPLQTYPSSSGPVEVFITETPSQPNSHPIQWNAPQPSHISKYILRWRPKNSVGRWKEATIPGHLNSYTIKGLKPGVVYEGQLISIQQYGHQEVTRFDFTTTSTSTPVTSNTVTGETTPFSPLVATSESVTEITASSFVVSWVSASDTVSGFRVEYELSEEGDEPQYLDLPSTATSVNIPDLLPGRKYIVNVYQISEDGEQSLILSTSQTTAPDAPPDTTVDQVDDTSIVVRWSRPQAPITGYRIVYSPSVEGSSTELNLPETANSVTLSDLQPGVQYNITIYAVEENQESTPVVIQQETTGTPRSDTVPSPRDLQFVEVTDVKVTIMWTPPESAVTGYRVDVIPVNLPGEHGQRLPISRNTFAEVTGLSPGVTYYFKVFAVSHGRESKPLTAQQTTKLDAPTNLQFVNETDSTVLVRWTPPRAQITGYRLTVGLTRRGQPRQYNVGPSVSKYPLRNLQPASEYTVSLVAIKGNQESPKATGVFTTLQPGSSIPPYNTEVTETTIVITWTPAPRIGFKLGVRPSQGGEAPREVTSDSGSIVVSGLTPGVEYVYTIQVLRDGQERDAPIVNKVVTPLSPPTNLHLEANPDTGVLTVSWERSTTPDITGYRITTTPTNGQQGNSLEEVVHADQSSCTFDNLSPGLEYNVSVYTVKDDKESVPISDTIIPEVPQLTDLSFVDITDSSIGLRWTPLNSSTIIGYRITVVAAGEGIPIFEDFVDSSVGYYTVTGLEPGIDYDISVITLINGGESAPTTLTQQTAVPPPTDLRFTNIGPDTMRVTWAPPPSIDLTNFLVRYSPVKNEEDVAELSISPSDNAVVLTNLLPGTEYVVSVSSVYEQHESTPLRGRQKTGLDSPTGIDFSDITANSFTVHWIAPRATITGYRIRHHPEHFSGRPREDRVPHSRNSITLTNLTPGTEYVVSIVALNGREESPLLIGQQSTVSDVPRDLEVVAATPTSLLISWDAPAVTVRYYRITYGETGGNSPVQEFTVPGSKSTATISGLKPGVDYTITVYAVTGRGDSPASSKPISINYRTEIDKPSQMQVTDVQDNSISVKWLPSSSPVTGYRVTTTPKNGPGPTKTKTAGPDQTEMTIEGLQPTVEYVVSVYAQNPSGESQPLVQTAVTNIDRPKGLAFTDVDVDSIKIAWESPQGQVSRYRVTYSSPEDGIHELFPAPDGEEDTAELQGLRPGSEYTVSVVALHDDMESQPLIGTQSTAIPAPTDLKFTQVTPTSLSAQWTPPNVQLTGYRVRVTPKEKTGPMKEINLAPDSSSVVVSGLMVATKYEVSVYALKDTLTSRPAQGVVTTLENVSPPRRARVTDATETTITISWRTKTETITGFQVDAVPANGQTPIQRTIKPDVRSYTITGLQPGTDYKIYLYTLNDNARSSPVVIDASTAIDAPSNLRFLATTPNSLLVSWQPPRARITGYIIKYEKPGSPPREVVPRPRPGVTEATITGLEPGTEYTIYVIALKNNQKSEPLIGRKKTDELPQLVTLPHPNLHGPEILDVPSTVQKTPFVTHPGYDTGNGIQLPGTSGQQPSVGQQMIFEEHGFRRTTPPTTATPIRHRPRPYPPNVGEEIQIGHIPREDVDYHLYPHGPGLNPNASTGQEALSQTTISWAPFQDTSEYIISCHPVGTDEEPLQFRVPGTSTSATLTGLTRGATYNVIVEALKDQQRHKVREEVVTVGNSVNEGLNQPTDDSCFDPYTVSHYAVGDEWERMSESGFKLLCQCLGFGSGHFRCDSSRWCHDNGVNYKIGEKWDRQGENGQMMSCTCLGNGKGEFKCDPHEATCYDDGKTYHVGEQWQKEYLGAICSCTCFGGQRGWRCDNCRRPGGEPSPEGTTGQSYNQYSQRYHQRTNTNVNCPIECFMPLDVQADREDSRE

[9] = target: His-eTEV-Fn fusion protein, Ala mutant G8, P02751
Chain of His-eTEV-Fn fusion protein, Ala mutant G8, P02751 (P02751 whole entry, looked up, change not shown, the tested form may be a part): as above

[10] = target: His-eTEV-Fn fusion protein, Ala mutant E2, P02751
Chain of His-eTEV-Fn fusion protein, Ala mutant E2, P02751 (P02751 whole entry, looked up, change not shown, the tested form may be a part): as above

[11] = target: His-eTEV-Fn fusion protein, Ala mutant R1, P02751
Chain of His-eTEV-Fn fusion protein, Ala mutant R1, P02751 (P02751 whole entry, looked up, change not shown, the tested form may be a part): as above

[12] = target: His-eTEV-Fn fusion protein, Ala mutant F6, P02751
Chain of His-eTEV-Fn fusion protein, Ala mutant F6, P02751 (P02751 whole entry, looked up, change not shown, the tested form may be a part): as above

[13] = target: T1, W tag fused GFPUV
T1 chain: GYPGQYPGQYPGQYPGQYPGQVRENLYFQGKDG

[14] = target: His-eTEV-Fn fusion protein, Ala mutant M0, P02751
Chain of His-eTEV-Fn fusion protein, Ala mutant M0, P02751 (P02751 whole entry, looked up, change not shown, the tested form may be a part): as the sequence (P02751 whole entry, looked up, change not shown, the tested form may be a part) above

[15] = target: His-eTEV-Fn fusion protein, Ala mutant K9, P02751
Chain of His-eTEV-Fn fusion protein, Ala mutant K9, P02751 (P02751 whole entry, looked up, change not shown, the tested form may be a part): as the sequence (P02751 whole entry, looked up, change not shown, the tested form may be a part) above

Chain of His-eTEV-Fn fusion protein, Ala mutant L4, P02751 (P02751 whole entry, looked up, change not shown, the tested form may be a part): as the sequence (P02751 whole entry, looked up, change not shown, the tested form may be a part) above
Chain of His-eTEV-Fn fusion protein, Ala mutant D10, P02751 (P02751 whole entry, looked up, change not shown, the tested form may be a part): as the sequence (P02751 whole entry, looked up, change not shown, the tested form may be a part) above
Chain of His-eTEV-Fn fusion protein, Ala mutant N3, P02751 (P02751 whole entry, looked up, change not shown, the tested form may be a part): as the sequence (P02751 whole entry, looked up, change not shown, the tested form may be a part) above
Chain of His-eTEV-Fn fusion protein, Ala mutant Q7, P02751 (P02751 whole entry, looked up, change not shown, the tested form may be a part): as the sequence (P02751 whole entry, looked up, change not shown, the tested form may be a part) above
Chain of His-eTEV-Fn fusion protein, Ala mutant G11, P02751 (P02751 whole entry, looked up, change not shown, the tested form may be a part): as the sequence (P02751 whole entry, looked up, change not shown, the tested form may be a part) above
Chain of His-eTEV-Fn fusion protein (wild type), P02751 (P02751 other isoform, or with tags, fused parts or gaps): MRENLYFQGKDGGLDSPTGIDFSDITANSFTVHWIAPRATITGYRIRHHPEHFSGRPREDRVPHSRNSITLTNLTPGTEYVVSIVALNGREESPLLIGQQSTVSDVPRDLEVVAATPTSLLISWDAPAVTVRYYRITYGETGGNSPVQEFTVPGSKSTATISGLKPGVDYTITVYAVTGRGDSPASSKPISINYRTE

B1: Tobacco etch virus (TEV) protease (protein)
chain: GESLFKGPRDYNPISSTICHLTNESDGHTTSLYGIGFGPFIITNKHLFRRNNGTLLVQSLHGVFKVKNTTTLQQHLIDGRDMIIIRMPKDFPPFPQKLKFREPQREERICLVTTNFQTKSMSSMVSDTSCTFPSSDGIFWKHWIQTKDGQCGSPLVSTRDGFIVGIHSASNFTNTNNYFTSVPKNFMELLTNQEAQQWVSGWRLNADSVLWGGHKVFMSKPEEPFQPVKEATQLMNELVYSQ
- cleavage by TEV protease (SDS electrophoresis, 24 kDa to 20 kDa shift) [1]: the 4th, 5th and 7th amino acids (namely, Leu, Tyr and Gln) are essential for the substrate of TEV protease
- cleavage by TEV protease (SDS electrophoresis, 24 kDa to 20 kDa shift) [2]: The eTEV peptide is recognized and cleaved by TEV protease.
- cleavage by TEV protease (SDS electrophoresis, 24 kDa to 20 kDa shift) [3]: the other residues are substitutable with Ala
- cleavage by TEV protease (SDS electrophoresis, 24 kDa to 20 kDa shift) [4]: the other residues are substitutable with Ala
- cleavage by TEV protease [5]: the above-mentioned W tag fusion proteins, like single tag fusion proteins, can be used ... for cleavage by TEV protease
- cleavage by TEV protease (SDS electrophoresis, 24 kDa to 20 kDa shift) [6]: the 4th, 5th and 7th amino acids (namely, Leu, Tyr and Gln) are essential for the substrate of TEV protease
- cleavage by TEV protease (SDS electrophoresis, 24 kDa to 20 kDa shift) [7]: the other residues are substitutable with Ala
- cleavage by TEV protease (SDS electrophoresis, 24 kDa to 20 kDa shift) [8]: the 4th, 5th and 7th amino acids (namely, Leu, Tyr and Gln) are essential for the substrate of TEV protease
- cleavage by TEV protease (SDS electrophoresis, 24 kDa to 20 kDa shift) [9]: the other residues are substitutable with Ala
- cleavage by TEV protease (SDS electrophoresis, 24 kDa to 20 kDa shift) [10]: substitution of Ala for Glu at residue 2 gives no significant change in cleavage
- cleavage by TEV protease (SDS electrophoresis, 24 kDa to 20 kDa shift) [11]: the other residues are substitutable with Ala
- cleavage by TEV protease (SDS electrophoresis, 24 kDa to 20 kDa shift) [12]: the other residues are substitutable with Ala
- cleavage by TEV protease [13]: the above-mentioned W tag fusion proteins, like single tag fusion proteins, can be used ... for cleavage by TEV protease
- cleavage by TEV protease (SDS electrophoresis, 24 kDa to 20 kDa shift) [14]: the other residues are substitutable with Ala
- cleavage by TEV protease (SDS electrophoresis, 24 kDa to 20 kDa shift) [15]: the other residues are substitutable with Ala
